Results published in the supplement of paper PMC12764529.
± gives the half width of the 95% confidence interval.

What was measured:
[1] = folding stability dG unfold from trypsin proteolysis; higher = more stable
Procedure, shortened: (§1)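 Sequencing followed digestion of designed mini-proteins with trypsin and chymotrypsin, each at 11 concentrations in threefold dilutions together with a no-protease condition. The mini-proteins were under 80 residues, had no cysteine, sat in a PA-tagged cDNA display construct, and were kept only if AlphaFold2 dimer inter-PAE was above 15. From the counts, Bayesian fitting gave K50, and unfolding free energy was derived against a sequence-predicted unfolded-state K50 and a shared folded-state K50, per protease or combined.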

[2] = folding stability dG unfold from chymotrypsin proteolysis; higher = more stable
Procedure, shortened: as §1

[3] = folding stability dG unfold (combined trypsin and chymotrypsin); higher = more stable
Procedure, shortened: as §1

Sequence | folding stability dG unfold [1] [kcal/mol] | folding stability dG unfold [2] [kcal/mol] | folding stability dG unfold [3] [kcal/mol]
SAGGSAGGSAGGPDDWVEVYFIMVSIKPKEVKPDPNGGAEYEFEIKISIFPFWIPPDDISAGGSAGGSAGGS [r10_524_TrROS] | 3.33 ± 0.26 | 4.15 ± 0.18 | 3.94 ± 0.22
SAGGSAGGSAGGPDWRMISIPITFRFYVMEYDGGKPKKAEPIHEHPIPIMIMFPPDALKSAGGSAGGSAGGS [r10_492_TrROS] | 1.87 ± 0.032 | 3.35 ± 0.014 | 2.91 ± 0.07
SAGGSAGGSAGGPENDWREVDIKIKFENPEGKPIFDIKIYYMPDGDIMIYFPNGNWIWISAGGSAGGSAGGS [r10_972_TrROS] | 2.42 ± 0.14 | 4.14 ± 0.065 | 3.75 ± 0.17
SAGGSAGGSAGGPKAIVTEVEVEPNTGKARLKVKVYDPVTGKFSEFEVEVETTGKDLNLSAGGSAGGSAGGS [r10_173_TrMRF] | 1.08 ± 0.049 | 2.37 ± 0.074 | 1.89 ± 0.11
SAGGSAGGSAGGPKAPGDKAVPATVEVRVTEYAVVPGLGEKLEKLPEKTFKATFVFFNKSAGGSAGGSAGGS [r10_122_TrMRF] | -0.48 ± 0.26 | 0.611 ± 0.11 | 0.286 ± 0.092
SAGGSAGGSAGGPKLVLKIKTEIKIEKKLEFDPETGELTEEIEIEIKIEIELEPLPEGLSAGGSAGGSAGGS [r10_376_TrROS_Hall] | 1.32 ± 0.25 | 3.24 ± 0.35 | 2.83 ± 0.96
SAGGSAGGSAGGPKVEVLEVFEFGDLRFVKVYDPETGKVTLLAVTRSDGSKVTFFNPEESAGGSAGGSAGGS [r10_655_TrMRF] | 1.42 ± 0.056 | 2.58 ± 0.053 | 2.23 ± 0.15
SAGGSAGGSAGGPLKVEVIGSIEGDDRVYVLTRVPGVGGLFVAEYEKPSGKILSVSPVPLSAGGSAGGSAGG [r7_154_TrMRF] | 0.743 ± 0.065 | 1.3 ± 0.15 | 1.07 ± 0.081
SAGGSAGGSAGGPLPGKPPLRLKLFTLTVRTRTYRKTEDGTWEEVEESEAEITVLVLEPVSAGGSAGGSAGG [r7_506_TrROS_Hall] | 3.45 ± 0.11 | 4.99 ± 0.17 | 4.71 ± 0.14
SAGGSAGGSAGGPMPVSVSPIGTKVEKTEEPLVVETTTTLSDAEGPPVTTTTTTVTPPSTSAGGSAGGSAGG [r11_129_JUSTAS] | 1.27 ± 0.08 | 1.33 ± 0.1 | 1.35 ± 0.13
SAGGSAGGSAGGPPSVPITITLIILFPDGYFIVIELTIEVPPDGEIEIKIKILHIFPVKSAGGSAGGSAGGS [r10_1139_TrROS] | 3.1 ± 0.093 | 3.76 ± 0.12 | 3.6 ± 0.12
SAGGSAGGSAGGPRMTVVDLDPEKGDHLYLVEIPDTNEVVLVSSSELLRLAEAGPVELKGSAGGSAGGSAGG [r7_452_TrMRF] | -0.107 ± 0.27 | 0.115 ± 0.062 | 0.129 ± 0.14
SAGGSAGGSAGGPRPLRRELRIRRRFRFRVLGLEEGEPRPREFEVEVELVLVETRGPGESAGGSAGGSAGGS [r10_118_TrMRF] | 2.65 ± 0.082 | 4.31 ± 0.093 | 3.84 ± 0.21
SAGGSAGGSAGGPRTIYIPVKVEPDPNGKWKIDIEEIAKNLPDVKITSITPNYIKITFPASAGGSAGGSAGG [r11_771_TrROS] | 0.398 ± 0.18 | 1.38 ± 0.13 | 1.08 ± 0.16
SAGGSAGGSAGGPRTLTLTVTLTRTYYDEETGEEVETETETLTLTLRLEPPPPLSPEQLSAGGSAGGSAGGS [r10_50_TrROS_Hall] | 2.69 ± 0.061 | 3.19 ± 0.07 | 2.99 ± 0.17
SAGGSAGGSAGGPTVTLTLEVPVEDAEELAKALEDAGKARVTKVERNEDGFLRITVEFEDSAGGSAGGSAGG [r7_589_TrROS_Hall] | 0.593 ± 0.048 | 1.28 ± 0.027 | 1.06 ± 0.075
SAGGSAGGSAGGPVRIVMKPSDIEYLLEKFGVEPLEIEEVEEDYVVVTITPEALKEAGLGSAGGSAGGSAGG [r7_587_TrMRF] | 1.1 ± 0.065 | 0.737 ± 0.049 | 1.01 ± 0.18
SAGGSAGGSAGGPYVVKVKLKDGSVVELPVEEDHIPTIEDLVKAGIPPELIESVEIEPESAGGSAGGSAGGS [r10_565_TrMRF] | 2.57 ± 0.12 | 3.09 ± 0.093 | 2.91 ± 0.1

Sequence | folding stability dG unfold [1] [kcal/mol] | folding stability dG unfold [2] [kcal/mol] | folding stability dG unfold [3] [kcal/mol]
SAGGSAGGSAGGRKLAIKIEIEEVKTETRIRPDGKTETRTELRIKIEIRPVPHPDDPELLSAGGSAGGSAGG [r7_523_TrROS_Hall] | 2.99 ± 0.12 | 1.95 ± 0.056 | 2.34 ± 0.25
SAGGSAGGSAGGRKRYRFKPGQRLEPRLVFRLKLRLELERDEDGNLSLKLELEIEEVRLLSAGGSAGGSAGG [r7_572_TrROS_Hall] | 3.35 ± 0.13 | 4.41 ± 0.098 | 4.09 ± 0.29
SAGGSAGGSAGGRLVVFEVKKDELNITGPGEARVVSVEELPGDRVRVVVEVPEGAVPGLASAGGSAGGSAGG [r17_48_TrMRF] | 0.324 ± 0.084 | 1.27 ± 0.066 | 0.935 ± 0.12
SAGGSAGGSAGGSADKNGYVKIPITVFTMERYGNGQPKMETVKVEIYVPPGESIEDLLQSAGGSAGGSAGGS [r4_283_TrROS] | 0.0466 ± 0.19 | 0.166 ± 0.32 | 0.247 ± 0.22
SAGGSAGGSAGGSAGVIVSLSPAPPSADTVVELPKGVTVTVTTVNGERVLTTLVPEALLSAGGSAGGSAGGS [r10_355_JUSTAS] | 0.365 ± 0.013 | 0.00971 ± 0.032 | 0.217 ± 0.048
SAGGSAGGSAGGSAKITIEYNPETNTLTVTITLENGEKVEITVPPNATLEEIEELAKKASAGGSAGGSAGGS [r4_205_TrROS_Hall] | 3.41 ± 0.28 | 2.49 ± 0.11 | 3.04 ± 0.3
SAGGSAGGSAGGSAPPKVEIEVTVLVKDEDGRLYVFKAKATFDLETNELTVEVEVYELPSAGGSAGGSAGGS [r4_445_TrROS_Hall] | 3.22 ± 0.39 | 4.79 ± 0.13 | 4.66 ± 0.35
SAGGSAGGSAGGSDDFVLRYRRRVRRKPKEVRLLPNGELVTGWEEEVSTFPVLTHPDDDSAGGSAGGSAGGS [r10_524_TrMRF] | 0.239 ± 0.11 | 0.5 ± 0.065 | 0.448 ± 0.044
SAGGSAGGSAGGSDNDGAKPPKIKVEIHPVNMPPGDIVVHNDHYVIAFPNGWFFVIRPKSAGGSAGGSAGGS [r4_394_TrROS] | 0.911 ± 0.064 | 1.61 ± 0.16 | 1.32 ± 0.14
SAGGSAGGSAGGSDNKAILGDVPIKFYDKNGKPVITAKIGYFPDGRVVIYFPDGSKIEASAGGSAGGSAGGS [r10_972_TrMRF] | 1.48 ± 0.04 | 1.04 ± 0.023 | 1.25 ± 0.038
SAGGSAGGSAGGSDNSITLDFFFNNYYIKITFNPWNGNLEIDEVQKVPPPPKPKDPGDKSAGGSAGGSAGGS [r4_21_TrROS] | 2.71 ± 0.13 | 3.19 ± 0.091 | 2.94 ± 0.22
SAGGSAGGSAGGSDTPGNYKKVKITLKRVTLGDNNTPKVETVELEVTVPPNYTLEDVLSSAGGSAGGSAGGS [r4_283_TrMRF] | 0.976 ± 0.072 | 1.1 ± 0.14 | 1.14 ± 0.16
SAGGSAGGSAGGSEEEIKKLAAEGGSFTATIPVVTPDGKPVEKTVTVEVKTDPKTGKLVSAGGSAGGSAGGS [r10_346_JUSTAS] | 0.482 ± 0.043 | 0.906 ± 0.025 | 0.791 ± 0.083
SAGGSAGGSAGGSEGAPIRVTLTGTRTETRTRPDGSPVTDSGTDTVEFTLDLYDPEKSGSAGGSAGGSAGGS [r4_450_TrMRF] | -1.4 ± 0.66 | -0.0249 ± 0.13 | -0.363 ± 0.21
SAGGSAGGSAGGSEKPPIKLKIKVYDPETNELVSEVEVELEPGQSLEELLKKFDVVEIESAGGSAGGSAGGS [r4_187_TrROS_Hall] | 1.71 ± 0.1 | 2.94 ± 0.064 | 2.66 ± 0.12
SAGGSAGGSAGGSEVEVTTRPDGSIVARVRLPDGGVLTLVAEVGPDGSVVVTEASLSPESAGGSAGGSAGGS [r4_246_TrMRF] | 0.856 ± 0.026 | 1.94 ± 0.027 | 1.66 ± 0.052
SAGGSAGGSAGGSFDIEQERNPENGYHRVTIDFPNGPPVEIWMPPGSTLEQIEDLAKQFSAGGSAGGSAGGS [r4_205_TrROS] | 1.07 ± 0.036 | 0.658 ± 0.1 | 0.878 ± 0.12
SAGGSAGGSAGGSFEVVSVDETVTVPPGATVTIVVRDENGKLLTFTFEVRLVPPPPEEESAGGSAGGSAGGS [r10_573_TrROS_Hall] | 1.58 ± 0.1 | 1.95 ± 0.072 | 1.86 ± 0.18
